Key:
[1] = target: T1, IGF-1 linear sequence stretch Lys75 to Arg84 (on 15-mer array peptides) (Homo sapiens (Human).); assay: peptide or protein array; Intavis CelluSpots slides with 15-mer peptides (off-set 1) of human IGF-1, and an alanine scan; 1 μg/ml antibody in TBST, ambient temperature, 2 h; HRP secondary antibody, chemiluminescence
T1 construct: human IGF-1, stretch Lys75–Arg84 (numbers on UniProtKB P05019), mapped with 15-mer peptides off-set by 1 amino acid; The peptides on the array were 15 amino acids long; source: synthetic peptide, spotted on Intavis CelluSpots glass slides
T1 chain: KPTGYGSSSR

[2] = target: T2, human recombinant IGF-1 (insulin-like growth factor 1) (Homo sapiens (Human)., UniProt P05019); assay: SPR; Biacore T200, 25 °C, HBS-EP (10 mM HEPES pH 7.4, 150 mM NaCl, 1 mM EDTA, 0.05% Tween 20); mAb from clone culture supernatant captured by immobilised polyclonal rabbit anti-mouse IgG on CM5; analytes injected at 90, 30, 10, 3.3, 1.1, 0 nM, in triplicate; dissociation 5, 30 or 120 min (IGF-1 on anti–IGF-1: 120 min); 1:1 Langmuir fit; settings: one partner purified
T2 construct: insulin-like growth factor 1, human, mature 70-amino acid polypeptide hormone (7.7 kDa; 7.6-kDa recombinant analyte); loop positions 74–90 are counted on UniProtKB P05019; Two suppliers are named (PeproTech for SPR, Roche Penzberg for ECLIA); They are kept as one molecule because both are recombinant mature human IGF-1; also called mature human IGF-1; source: bought: PeproTech (100-11) (SPR); …
T2 sequence (P05019 49-118): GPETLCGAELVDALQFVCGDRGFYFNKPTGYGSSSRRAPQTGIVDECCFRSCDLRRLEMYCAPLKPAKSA

[3] = target: T3, human recombinant IGF-2 (insulin-like growth factor 2) (Homo sapiens (Human)., UniProt P01344); assay: as above; settings: one partner purified
T3 construct: insulin-like growth factor 2, human, mature 67-amino acid peptide (7.5 kDa; 7.2-kDa recombinant analyte); loop positions 53–65 are counted on UniProtKB P01344; also called mature IGF-2; source: bought: PeproTech (100-12)
T3 sequence (P01344 25-91): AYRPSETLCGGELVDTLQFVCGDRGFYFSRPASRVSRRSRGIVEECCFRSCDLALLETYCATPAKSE

[4] = target: T2, human recombinant IGF-1 (insulin-like …); assay: as above; settings: one partner purified; remark: listed apart in the source
[5] = target: T4, TtSlyD-IGF-1(74–90) (Thermus thermophilus (strain ATCC …)); assay: as above; settings: one partner purified
T4 construct: Thermus thermophilus SlyD, FKBP domain upstream of the insertion site (Nt-SlyD-FKBP); the printed cell begins with the MRGS tag, which replaces Met1; single glycine linker; human IGF-1 loop, positions 74–90 of UniProtKB P05019, grafted in place of the IF domain (TtSlyD residues 67–121); Thermus thermophilus SlyD, FKBP domain downstream of the insertion site (Ct-SlyD-FKBP), from Ala122; The SPR …
T4 chain: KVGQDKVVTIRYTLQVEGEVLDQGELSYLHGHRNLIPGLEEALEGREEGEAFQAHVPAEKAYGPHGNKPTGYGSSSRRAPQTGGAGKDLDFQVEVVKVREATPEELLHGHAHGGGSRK

B1: mAb anti–IGF-1(74–90) (antibody, V domains shown)
VH: QVQLQQSGAELVRPGSSVKISCKASGYAFSNLWMNWVKQRPGQGLEWIGQIYPGDGDTNYYGDFKGKATLTADSSSSTAYMQLSRLTSEDSAVYFCARIGYYGMDYWGQGTSVTVSS
VL: DVVLTQTPLSLPVNIGDEASISCKSTKSLLSSDGLTYLDWYLQKPGQSPQVLIYLVSNRFSGVPDRFSGSGSGTDFTLKISRVEAEDLGVYYCFQSNYLPTFGAGTKLELK
notes: Murine monoclonal antibody raised with TtSlyD-IGF-1(74–90); In the ECLIA it stood as a biotinylated or ruthenylated conjugate (lysine ε-amino groups); also called mAb IGF-1(74–90); anti–IGF-1 antibody; source: mouse hybridoma; clone culture supernatant captured on the sensor (SPR); purified from the cell culture supernatant (immunoconjugates for ECLIA)
binding result [1]: binds
t1/2 diss [2]: 11.3 h
binding result [3]: no binding (tested: 90 nM)
Kd [4]: 0.0055 nM
koff [4]: 1.7e-05 s⁻¹
kon [4]: 3e+06 M⁻¹ s⁻¹
Kd [5]: 0.031 nM
koff [5]: 2.8e-05 s⁻¹
kon [5]: 920000 M⁻¹ s⁻¹

— paper PMC6737233, “A novel epitope-presenting thermostable scaffold for the development of highly specific insulin-like growth factor-1/2 antibodies” (The Journal of Biological Chemistry, 2019)
